Source: patent EP1052288A1, “Complex for transferring an anionic substance of interest into a cell” (TRANSGENE S.A., priority 1999, dated 2000)
Ends that are not written are not given here.

How the values were obtained:
[1] = Sizes of complexes by quasi-elastic light scattering; format: physicochemical; conditions: complexes (-/+) [1:4], 6 µg DNA (pTG11033), 500 µl; for Sizes in ultrafiltrated serum: ultrafiltrated foetal calf serum
Procedure: Sizes of complexes prepared with a plasmid DNA (PTG11033; see EP-A 890 32, 9.6 kb) and the C1qA (4-26) peptide (see Table I) were evaluated. Complexes were formulated either in 5% glucose or in ultrafiltrated foetal calf serum (YM10 Amicon membrane). Formulation was made in 500 µl buffer, with 6 µg DNA and the quantity of peptide necessary to form a [1:4], [-:+] complex. As a control a polylysine SV40 NLS peptide was used. […] When oxidized, the dimerized C1qA peptide could form even smaller complexes, whatever the formulation buffer used. The reasonable sizes obtained in ultrafiltrated serum with C1qA peptides is an advantage for the use of this peptide rather than polylysine derivatives.
Complexes (-/+):[1:4], 6 µg DNA, 500 µl.
Size measures: quasi-elastic light scattering, COULTER N4+. [formula] [formula] [formula] [formula]

[2] = test system: plasmid pTG11033; assay: Gel retardation assay (agarose gel electrophoresis); format: binding
Procedure: Gel retardation assay was performed with C1qA (4-26) in several buffers: PBS, TBS, 5% glucose, or ultrafiltrated serum (YM10 Amicon membrane). DNA and peptides have been mixed at charge ratios [-/+] of [1:4], [1:1] and [1:0.2].

With “SP-1052 oxidized: When oxidized, the dimerized C1qA peptide (CRAPDGKKGEAGRPGRRGRPGLK; also: oxidized disulfide dimer; UniProt P02745 26-48, looked up, fragment)” the “Sizes in 5% glucose” value [1] was 200 nm and the “Sizes in ultrafiltrated serum” value [1] was 300 nm.
For “SP-1052: C1qA (4-26) peptide, complexed with plasmid DNA (CRAPDGKKGEAGRPGRRGRPGLK; also: complexed with plasmid DNA; UniProt P02745 26-48, looked up, fragment)”, the “retardation in DNA” value ([2]; charge ratio [-/+] [1:1]) was “significative retardation”, the “association of DNA to the peptides” value ([2]; charge ratio [-/+] [1:4], PBS, TBS, 5% glucose or ultrafiltrated serum, absence of visible band with ethidium bromide) was “strong association of DNA to the peptides” and the “Sizes in 5% glucose” value [1] was 1µm. The “Sizes in ultrafiltrated serum” value [1] was 300-500 nm.
